Values after ≈ are worked out from the molar mass of the structure shown. Like-named read-outs stand apart in the source and are kept apart here.
Assays:
Candida albicans [1] = experiment: microbe, parasite or virus in culture; type: cell-based
Description: (§1) The minimum inhibitory concentration (MIC) of the Dex, AmB, Nap-FFDKY, Npx-FFDKY, Fmoc-FFDKY, Nap-AmB, Npx-AmB and Dex-AmB hydrogels was determined by a serial 2-fold dilution of test samples. Fourteen different concentrations of drugs and hydrogels were prepared in DMF solution. One millilitre of the fungal strain […] colony-forming unit (CFU)/tube was inoculated into each tube containing different concentrations (1 ml) of test samples and incubated at 28°C (200 rpm) for 24 h. The MIC was defined as the minimum concentration of the sample inhibiting the visible growth of the microorganism. The experiment was repeated at least three times. Based on the values of MIC, 0.1 ml of the fungal strain containing different concentrations of test samples which inhibited the visible growth of the microorganism was subcultivated on the Sabouraud's dextrose agar plates, and incubated at 28°C for 48 h. The minimum bactericidal concentration (MBC) determination was defined as the minimum concentration of the sample sterilizing the visible growth of the microorganism (lower than 5 CFU/plate). The experiment was repeated at least three times. Based on the values of MIC, the fungal strain containing 1 × MIC and 2 × MIC concentrations of test samples was incubated at 28°C. A test suspension containing 0.1 ml was taken out and used to evaluate fungus colonies at 0, 1, 2, 4, 6, 8, 12 and 24 h.

Candida albicans [2] = experiment: Time-kill curves at 1 x MIC and 2 x MIC; type: cell-based; details: C. albicans, 28°C, n = 3; for time for which antifungal activity is exhibited in time-kill curves: sampled 0, 1, 2, 4, 6, 8, 12 and 24 h
Description: as §1

[3] = In vitro drug release of AmB or Dex from hydrogels; type: physicochemical; details: for final drug release percentage of AmB after 12 h: 0.3 ml PBS pH 7.4 containing trypsin 1 µg ml^−1, 37°C, HPLC-UV 383 nm; for final drug release percentage of AmB after 12 h / final drug release percentage of Dex after 12 h: n = 3; for constant release rate of AmB / final drug release percentage of Dex after 12 h / constant release rate of Dex: PBS pH 7.4 with trypsin 1 µg ml^−1, 37°C; for constant release rate of AmB / constant release rate of Dex: entire measurement period (12 h); for diffusion exponent n of AmB release (Mt/M∞ = k·t^n) / rate constant k of AmB release (Mt/M∞ = k·t^n) / diffusion exponent n of Dex release (Mt/M∞ = k·t^n) / rate constant k of Dex release (Mt/M∞ = k·t^n): fit of release data, PBS pH 7.4, 37°C; for final drug release percentage of Dex after 12 h: HPLC-UV 240 nm
Description: The 2.0 wt%, 3.0 wt% and 4.0 wt% of Nap-AmB, Npx-AmB and Dex-AmB hydrogels within the 0.3 ml PBS solution containing trypsin (1 µg ml^−1) were prepared for drug release study. A quantity of 0.2 ml of the upper buffer solution was taken out and used to run HPLC at every 30 min and 0.2 ml of fresh PBS buffer solution containing trypsin (1 µg ml^−1) was added back each time. The experiments were conducted at 37°C. The areas of peaks in HPLC spectra were used to determine the percentage of AmB or Dex released from their corresponding hydrogels. The liquid chromatography system (Agilent 1200 series, America) comprised Degasser G1322A, Quaternary pump G1312B, Thermostated auto sampler HiP-ALS G1367C, column oven G1316A and ultraviolet detector G1314A. Separation was achieved using a SepaxGP-C18 reversed-phase column (250 mm × 4.6 mm internal diameter, 5 µm particle size) (America). The mobile phase of AmB analysis was acetonitrile-water (43 : 57, containing 0.05% TFA) at a flow-rate of 1 ml min^−1. Chromatography was carried out at 30°C and the detector wavelengths were set at 383 nm. The mobile phase of Dex analysis was acetonitrile-water (45 : 55, containing 0.05% TFA) at a flow rate of 1 ml min^−1. Chromatography was carried out at 30°C and the detector wavelengths were set at 240 nm. The experiment was conducted in three parallel experiments. […] Mt/M∞ is the fractional drug release, Mt is the amount of drug released at time t, M∞ is the maximum amount of drug released at time ∞, t is the release time, k is a rate constant of kinetic release and n is the diffusion exponent, characteristic of the drug release mechanism.

[4] = Hydrogel formation (gelation time, minimum gel concentration); type: physicochemical; details: for minimum gel concentration needed for gelation: PBS solutions at 37°C; for gelation time: room temperature, PBS pH 7.4, 2 equiv. Na2CO3
Description: General procedure for the formation of hydrogels: all the compounds dissolved in phosphate-buffered saline (PBS, pH 7.4). 2 equiv. of Na2CO3 (0.1 mol l^−1) were used to neutralize the carboxyl groups (─COOH) of compounds and adjust the pH to neutral. Then the hydrogels were formed at room temperature (22–25°C) or 37°C within 30 min.

[5] = Solubility of hydrogelators in aqueous solutions; details: water, PBS solutions (pH = 7.4) and culture solutions
[6] = low bioavailability; cited from earlier work
Excerpt: Invasive fungal infection has a significant influence on animal and plant life, which is a major cause of mortality that kills approximately 1.5 million people every year. Amphotericin B (AmB) is a broad-spectrum antifungal macrolide polyene antibiotic. Its antifungal effect is exerted by forming complexes with membrane sterols to allow the increase in the permeability of the fungal membrane. AmB is the most common antifungal agent used in clinical practice despite strong side-effects with low solubility and low bioavailability (less than 0.9%). Many researchers attempt ...

SMILES | MIC (Candida albicans [1]; 24 h) | MBC (Candida albicans [1]; 48 h) | speed of fungistatic effect in time-kill curves (in words) (Candida albicans [2]) | time for which antifungal activity is exhibited in time-kill curves (Candida albicans [2]) | final drug release percentage of AmB after 12 h ([3]; 2.0 wt% hydrogel) | constant release rate of AmB ([3]; 2.0 wt% hydrogel) | diffusion exponent n of AmB release (Mt/M∞ = k·t^n) ([3]; 2.0 wt% hydrogel) | rate constant k of AmB release (Mt/M∞ = k·t^n) ([3]; 2.0 wt% hydrogel) | final drug release percentage of AmB after 12 h ([3]; 3.0 wt% hydrogel) | constant release rate of AmB ([3]; 3.0 wt% hydrogel) | diffusion exponent n of AmB release (Mt/M∞ = k·t^n) ([3]; 3.0 wt% hydrogel) | rate constant k of AmB release (Mt/M∞ = k·t^n) ([3]; 3.0 wt% hydrogel) | final drug release percentage of AmB after 12 h ([3]; 4.0 wt% hydrogel) | constant release rate of AmB ([3]; 4.0 wt% hydrogel) | diffusion exponent n of AmB release (Mt/M∞ = k·t^n) ([3]; 4.0 wt% hydrogel) | rate constant k of AmB release (Mt/M∞ = k·t^n) ([3]; 4.0 wt% hydrogel) | minimum gel concentration needed for gelation [4] | gelation time [4] | solubility in aqueous solutions (in words) [5] | also measured
COc1ccc2cc([C@H](C)C(=O)N[C@@H](Cc3ccccc3)C(=O)N[C@@H](Cc3ccccc3)C(=O)N[C@@H](CC(=O)O)C(=O)N[C@@H](CCCCNC(=O)[C@H]3[C@@H]4C[C@@H](O[C@@H]5O[C@H](C)[C@@H](O)[C@H](N)[C@@H]5O)/C=C/C=C/C=C/C=C/C=C/C=C/C=C/[C@H](C)[C@@H](O)[C@@H](C)[C@H](C)OC(=O)C[C@H](O)C[C@H](O)CC[C@@H](O)[C@H](O)C[C@H](O)C[C@](O)(C[C@@H]3O)O4)C(=O)N[C@@H](Cc3ccc(O)cc3)C(=O)O)ccc2c1 [Npx-AmB] | 43.7 µg/mL (≈ 23.8 µM) | 0.349 mg/mL (≈ 190 µM) | exert fungistatic effect more quickly than AmB and Nap-AmB hydrogels | 2 h | 30.0% | about 0.2406 mg ml^−1 per hour | 0.7428 | approximately 0.2846 | 38.9% | ~0.4837 mg ml^−1 per hour | 0.7784 | ~0.3358 | 51.3% | ~0.8332 mg ml^−1 per hour | 0.7771 | ~0.4387 | ~1.0 wt% | 10 min | – | –
C[C@@H]1[C@H](O)[C@@H](C)/C=C/C=C/C=C/C=C/C=C/C=C/C=C/[C@H](O[C@@H]2O[C@H](C)[C@@H](O)[C@H](N)[C@@H]2O)C[C@@H]2O[C@](O)(C[C@@H](O)C[C@@H](O)[C@H](O)CC[C@@H](O)C[C@@H](O)CC(=O)O[C@H]1C)C[C@H](O)[C@H]2C(=O)NCCCC[C@H](NC(=O)[C@H](CC(=O)O)NC(=O)[C@H](Cc1ccccc1)NC(=O)[C@H](Cc1ccccc1)NC(=O)Cc1ccc2ccccc2c1)C(=O)N[C@@H](Cc1ccc(O)cc1)C(=O)O [Nap-AmB] | – | – | – | 2 h | 36.3% | about 0.3188 mg ml^−1 per hour | 0.6874 | approximately 0.2503 | 47.3% | ~0.6114 mg ml^−1 per hour | 0.5722 | ~0.4662 | 62.1% | ~1.015 mg ml^−1 per hour | 0.5481 | ~0.6379 | about 0.5 wt% | 3 min | highly soluble | –
C[C@@H]1C[C@H]2[C@@H]3CCC4=CC(=O)C=C[C@]4(C)[C@@]3(F)[C@@H](O)C[C@]2(C)[C@@]1(O)C(=O)CO [Dex, dexamethasone] | – | – | – | – | – | – | – | – | – | – | – | – | – | – | – | – | – | – | – | antifungal effect against C. albicans (in words) (Candida albicans [1]; MIC/MBC test, serial 2-fold dilution, 28°C, 24 h): less antifungal effective
C[C@@H]1[C@H](O)[C@@H](C)/C=C/C=C/C=C/C=C/C=C/C=C/C=C/[C@H](O[C@@H]2O[C@H](C)[C@@H](O)[C@H](N)[C@@H]2O)C[C@@H]2O[C@](O)(C[C@@H](O)C[C@@H](O)[C@H](O)CC[C@@H](O)C[C@@H](O)CC(=O)O[C@H]1C)C[C@H](O)[C@H]2C(=O)NCCCC[C@H](NC(=O)[C@H](CC(=O)O)NC(=O)[C@H](Cc1ccccc1)NC(=O)[C@H](Cc1ccccc1)NC(=O)CCC(=O)OCC(=O)[C@@]1(O)[C@H](C)C[C@H]2[C@@H]3CCC4=CC(=O)C=C[C@]4(C)[C@@]3(F)[C@@H](O)C[C@@]21C)C(=O)N[C@@H](Cc1ccc(O)cc1)C(=O)O [Dex-AmB] | 40.1 µg/mL (≈ 19.1 µM) | 0.643 mg/mL (≈ 306 µM) | exert fungistatic effect more quickly than AmB and Nap-AmB hydrogels | 2 h | 16.3% | about 0.1123 mg ml^−1 per hour | 0.8265 | about 0.2283 | 19.2% | ~0.1994 mg ml^−1 per hour | 0.6474 | ~0.3669 | 24.4% | ~0.3517 mg ml^−1 per hour | 0.7971 | ~0.6436 | ~2.0 wt% | approximately 30 min | highly soluble | final drug release percentage of Dex after 12 h ([3]; 2.0 wt% hydrogel): 28.5%; constant release rate of Dex ([3]; 2.0 wt% hydrogel): about 0.08359 mg ml^−1 per hour; diffusion exponent n of Dex release (Mt/M∞ = k·t^n) ([3]; 2.0 wt% hydrogel): 0.4404; rate constant k of Dex release (Mt/M∞ = k·t^n) ([3]; 2.0 wt% hydrogel): approximately 0.1211; final drug release percentage of Dex after 12 h ([3]; 3.0 wt% hydrogel): 39.6%; constant release rate of Dex ([3]; 3.0 wt% hydrogel): ~0.1743 mg ml^−1 per hour; diffusion exponent n of Dex release (Mt/M∞ = k·t^n) ([3]; 3.0 wt% hydrogel): 0.3576; rate constant k of Dex release (Mt/M∞ = k·t^n) ([3]; 3.0 wt% hydrogel): ~0.3039; final drug release percentage of Dex after 12 h ([3]; 4.0 wt% hydrogel): 46.8%; constant release rate of Dex ([3]; 4.0 wt% hydrogel): ~0.2867 mg ml^−1 per hour; diffusion exponent n of Dex release (Mt/M∞ = k·t^n) ([3]; 4.0 wt% hydrogel): 0.2587; rate constant k of Dex release (Mt/M∞ = k·t^n) ([3]; 4.0 wt% hydrogel): ~0.6024
C[C@@H]1[C@H](O)[C@@H](C)/C=C/C=C/C=C/C=C/C=C/C=C/C=C/[C@H](O[C@@H]2O[C@H](C)[C@@H](O)[C@H](N)[C@@H]2O)C[C@@H]2O[C@](O)(C[C@@H](O)C[C@@H](O)[C@H](O)CC[C@@H](O)C[C@@H](O)CC(=O)O[C@H]1C)C[C@H](O)[C@H]2C(=O)O [AmB, Amphotericin B] | – | – | – | 2 h | – | – | – | – | – | – | – | – | – | – | – | – | – | – | – | MBC (Candida albicans [1]; Candida albicans, C. albicans, 0.1 ml subcultivated on Sabouraud's dextrose agar, 28°C, 48 h, lower than 5 CFU/plate, repeated at least three times, read-out: MBC): 0.13 mg/mL (≈ 141 µM); MIC (Candida albicans [1]; Candida albicans, C. albicans, serial 2-fold dilution, 14 concentrations prepared in DMF, 1 ml fungal strain 10^18 CFU/tube, 28°C, 200 rpm, 24 h, visible growth, repeated at least three times, read-out: MIC): 4.06 µg/mL (≈ 4.39 µM); MBC (Candida albicans [1]; Candida albicans, supplement Fig. S21, read-out: MBC): 0.13 mg/mL (≈ 141 µM); MIC (Candida albicans [1]; Candida albicans, supplement Fig. S21, read-out: MIC): 4.06 µg/mL (≈ 4.39 µM); bioavailability [6]: less than 0.9%
